# From US20230374088A1 (GENERAL HOSPITAL, published 2023)
# T1: GST-Kif7-CC (460-600aa) (human, UniProt Q2M1P5 460-600)
# T1 construct: held on the BLI sensor through the GST tag; also called Kif7 coiled-coil domain; coiled-coil dimerization domain fragment of Kif7; not shown: N-terminal GST tag (HRV protease cleavable, modified pGEX vector)
# T1 sequence: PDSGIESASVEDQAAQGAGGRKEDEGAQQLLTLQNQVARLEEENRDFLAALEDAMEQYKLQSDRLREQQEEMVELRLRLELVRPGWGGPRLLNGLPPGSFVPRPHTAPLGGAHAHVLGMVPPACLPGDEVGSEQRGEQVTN
# T2: Gli2-ZF (418-604aa; zinc finger domain of Gli2) (human, UniProt P10070 418-604)
# T2 construct: Expressed with an HRV-cleavable N-terminal 6xHis tag, cleaved 'if needed'; also called Gli-ZF
# T2 sequence (looked up): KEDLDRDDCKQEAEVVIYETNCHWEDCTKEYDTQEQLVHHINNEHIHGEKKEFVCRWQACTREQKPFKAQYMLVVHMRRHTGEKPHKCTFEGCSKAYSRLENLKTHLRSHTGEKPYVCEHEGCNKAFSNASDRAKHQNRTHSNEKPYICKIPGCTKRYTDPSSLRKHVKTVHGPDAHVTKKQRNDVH
# T3: Gli2-ZF-SNAP (human, UniProt P10070 418-604, Alexa 647 dye on the SNAP tag in the TIRF assays)
# T3 construct: Labeled with Alexa 647 for TIRF microscopy; used unlabeled (as far as told) for cryo-EM; also called Gli2-ZF-SNAP-Alexa 647; Gli2-ZF-Alexa 647; not shown: C-terminal SNAP tag
# T3 sequence (looked up): T2 sequence (looked up)
# T4: GST-Kif7-CC-GFP (human, UniProt Q2M1P5 460-600)
# T4 construct: also called GST-tagged Kif7-CC-GFP; not shown: N-terminal GST tag; GFP tag, C-terminal by the name
# T4 sequence: T1 sequence
# B1: ZF1-2 (418-497) (other, human, UniProt P10070 418-497, looked up)
# Gli2 zinc-finger truncation: KEDLDRDDCKQEAEVVIYETNCHWEDCTKEYDTQEQLVHHINNEHIHGEKKEFVCRWQACTREQKPFKAQYMLVVHMRRH
# notes: One of the three truncations of the group m9; also called Gli2-ZF truncation ZF1-2
# B2: ZF3-5 (500-604) (other, human, UniProt P10070 500-604, looked up)
# Gli2 zinc-finger truncation: EKPHKCTFEGCSKAYSRLENLKTHLRSHTGEKPYVCEHEGCNKAFSNASDRAKHQNRTHSNEKPYICKIPGCTKRYTDPSSLRKHVKTVHGPDAHVTKKQRNDVH
# notes: residues 500-604; One of the three truncations of the group m9; also called Gli2-ZF truncation ZF3-5
# B3: ZF4-5 (530-604) (other, human, UniProt P10070 530-604, looked up)
# Gli2 zinc-finger truncation: EKPYVCEHEGCNKAFSNASDRAKHQNRTHSNEKPYICKIPGCTKRYTDPSSLRKHVKTVHGPDAHVTKKQRNDVH
# notes: residues 530-604; One of the three truncations of the group m9; also called Gli2-ZF truncation ZF4-5
# B4: GST-Kif7-SCC (481-543aa) (other)
# chain: KEDEGAQQLLTLQNQVARLEEENRDFLAALEDAMEQYKLQSDRLREQQEEMVELRLRLELVRP
# notes: The limits of the results section are used; also called shorter coiled-coil segment of Kif7-CC; not shown: GST tag, by the name GST-Kif7-SCC
# B5: Kif7-DM-GFP (1-543aa) (other)
# chain: MGLEAQRLPGAEEAPVRVALRVRPLLPKELLHGHQSCLQVEPGLGRVTLGRDRHFGFHVVLAEDAGQEAVYQACVQPLLEAFFEGFNATVFAYGQTGSGKTYTMGEASVASLLEDEQGIVPRAMAEAFKLIDENDLLDCLVHVSYLEVYKEEFRDLLEVGTASRDIQLREDERGNVVLCGVKEVDVEGLDEVLSLLEMGNAARHTGATHLNHLSSRSHTVFTVTLEQRGRAPSRLPRPAPGQLLVSKFHFVDLAGSERVLKTGSTGERLKESIQINSSLLALGNVISALGDPQRRGSHIPYRDSKITRILKDSLGGNAKTVMIACVSPSSSDFDETLNTLNYASRAQNIRNRATVNWRPEAERPPEETASGARGPPRHRSETRIIHRGRRAPGPATASAAAAMRLGAECARYRACTDAAYSLLRELQAEPGLPGAAARKVRDWLCAVEGERSALSSASGPDSGIESASVEDQAAQGAGGRKEDEGAQQLLTLQNQVARLEEENRDFLAALEDAMEQYKLQSDRLREQQEEMVELRLRLELVRP
# notes: Dimer; Used in TIRF, size exclusion and BLI (HIS-tagged, anti-penta-HIS sensor); also called GFP-tagged recombinant dimeric Kif7 protein; GFP-tagged Kif7-DM; not shown: TEV-cleavable N-terminal 6xHis tag and SUMOstar tag; His tag on in the BLI assay, state in other a; GFP tag, C-terminal by the name
# B6: Kif7M-Kif27CC chimera (other, human)
# chain: MGLEAQRLPGAEEAPVRVALRVRPLLPKELLHGHQSCLQVEPGLGRVTLGRDRHFGFHVVLAEDAGQEAVYQACVQPLLEAFFEGFNATVFAYGQTGSGKTYTMGEASVASLLEDEQGIVPRAMAEAFKLIDENDLLDCLVHVSYLEVYKEEFRDLLEVGTASRDIQLREDERGNVVLCGVKEVDVEGLDEVLSLLEMGNAARHTGATHLNHLSSRSHTVFTVTLEQRGRAPSRLPRPAPGQLLVSKFHFVDLAGSERVLKTGSTGERLKESIQINSSLLALGNVISALGDPQRRGSHIPYRDSKITRILKDSLGGNAKTVMIACVSPSSSDFDETLNTLNYASRAQNIRNRATVNWRPEAERPPEETASGARGPPRHRSETRIIHRGRRAPGPATASAAAAMRLGAECARYRACTDAAYSLLRELQAEPGLPGAAARKVRDWLCAVEGERSALSSASGPDSVLQLKRELKKCQCVLAADEVVFNQKELEVKELKNQVQMMVQENKGHAVSLKEAQKVNRLQNEKIIEQQLLVDQLSEELTKLNLSVTSSAKENCGDG
# notes: range 475-570; not shown: HIS tag (used for BLI); GFP tag
# B7: Kif27M-Kif7CC chimera (other, human)
# chain: MEEIPVKVAVRIRPLLCKEALHNHQVCVRVIPNSQQVIIGRDRVFTFDFVFGKNSTQDEVYNTCIKPLVLSLIEGYNATVFAYGQTGSGKTYTIGGGHIASVVEGQKGIIPRAIQEIFQSISEHPSIDFNVKVSYIEVYKEDLRDLLELETSMKDLHIREDEKGNTVIVGAKECHVESAGEVMSLLEMGNAARHTGTTQMNEHSSRSHAIFTISICQVHKNMEAAEDGSWYSPRHIVSKFHFVDLAGSERVTKTGNTGERFKESIQINSGLLALGNVISALGDPRRKSSHIPYRDAKITRLLKDSLGGSAKTVMITCVSPSSSNFDESLNSLKYANRARNIRNKPTVNFSPESDRIDEMEFEIKLLREALQSQQAGVSQTTQINREGSPDTNRIHSLEEQVAQLQGECLGYQCCVEEAFTFLVDLKDTVRLNEKQQHKLQEWFNMIQEVRKAVLTSFRGIGGTASLEEGPQHVTVPDSGIESASVEDQAAQGAGGRKEDEGAQQLLTLQNQVARLEEENRDFLAALEDAMEQYKLQSDRLREQQEEMVELRLRLELVRPGWGGPRLLNGLPPGSFVPRPHTAPLGGAHAHVLGMVPPACLPGDEVGSEQRGEQVTN
# notes: range 1-475; not shown: HIS tag (used for BLI); GFP tag
# B8: Gli2-ZF-GFP (other, human, UniProt P10070 418-604, looked up)
# chain: T2 sequence (looked up)
# notes: HRV-cleavable N-terminal 6xHis tag in the vector; not shown: C-terminal GFP tag
# How the values were obtained:
# GST-Kif7-CC (460-600aa) = target: T1, GST-Kif7-CC (460-600aa); assay: BLI association step, GST-Kif7-CC on the sensor, soluble truncation at 125 nM [panel C]
# Procedure: Equilibrium dissociation constants Kd (shown in parenthesis) were determined by fitting complete binding curves to Hill equation (See FIG. 10C). See also FIGS. 10A, 10B & 10C. Data is representative trace of a minimum of three repeats.
# BLI experiments were performed in an Octet Red 96 instrument (ForteBio). To quantify Kif7-Gli2 binding, Experiments were performed in an assay buffer containing 40 mM TRIS pH7.3, 40 mM KCl, 40 μM ATP 1 mM MgCl₂, 0.12% tween and 0.5 mM TCEP. In the simplest assay, dimeric GST-Kif7-CC at a concentration of 120 nM is immobilized on an anti-GST biosensor chip. Unbound Kif7 is washed away with buffer, and the chips are then dipped into buffer with a range of Gli2-ZF concentrations from 0-1 μM to allow for association of the two proteins. After 300 seconds, they are then moved back into a well with just buffer to allow dissociation for 400 seconds. The equilibrium response of each sensor from three independent repeats at each Gli2 concentration were normalized and plotted against Gli2 concentration and fitted with a Hill function to obtain a Kₜ. […] The assays were also performed with HIS-tagged Kif7-DM and the Kif7-Kif27 chimeric proteins, requiring the use of an anti-penta-HIS biosensor chip, and referencing sensors to account for non-specific binding of Gli2 to the HIS sensor. A flipped assay, using HIS-tagged Gli2 on the sensor and a range of Kif7 concentrations in buffer, was also conducted.
# [1] = target: T2, Gli2-ZF (418-604aa; zinc finger domain …); assay: BLI; GST-Kif7-SCC on sensor, Gli2-ZF as analyte, Hill fit
# Gli2-ZF-SNAP [2] = target: T3, Gli2-ZF-SNAP; assay: TIRF microscopy; 100 nM Gli2-ZF-SNAP-Alexa647 with 100 nM kinesin on microtubules
# Excerpt: (§1) Briefly, fluorescently labeled (Rhodamine/HiLyte-647) and biotinylated microtubule seeds, polymerized with the non-hydrolyzable GTP analog GMPCPP, were immobilized on a glass coverslip through neutravidin-biotin linkages (FIG. 4A). GMPCPP was chosen as it mimics the GTP-form of tubulin present at microtubule ends (Jiang et al., Developmental cell, 49, 711-730. e8 2019). […] A Gli2 control was used to measure non-specific binding of Gli2-ZF to microtubules. Single molecule photobleaching of purified Kif7-DM confirmed that it is a dimer (FIGS. 11A-D).
# To address which of the two Gli-interaction sites of Kif7 plays a role in modulating Kif7 microtubule binding, we generated two chimeric proteins where we swapped either the motor and neck-linker (M) or the coiled-coil (CC) domains of Kif7 and Kif27 (Kif7M-Kif27CC and Kif27M-Kif7CC) (FIG. 5E). […] The binding affinity for each of the two Gli interaction sites on Kif7-DM could be determined using BLI (FIG. 12H). We compared the two chimeras to Kif7-DM in TIRF microscopy-based microtubule binding assay. […] Next, we compared how the microtubule binding of the chimeras were regulated by Gli with respect to Kif7-DM.
# Gli2-ZF-SNAP [3] = target: T3, Gli2-ZF-SNAP; assay: TIRF microscopy; 100 nM Kif7-DM-GFP and 100 nM Alexa-647 labeled Gli2-ZF-SNAP on GMPCPP microtubules
# Procedure: Rhodamine/HiLyte 647 labeled GMPCPP-stabilized microtubules (grey) were immobilized on a PEG-treated glass coverslip (yellow) via neutravidin-biotin linkages (blue & brown respectively). Kif7-DM-GFP (green), Gli2-ZF-SNAP-Alexa 647 (pink) and 1 mM ATP were subsequently added to examine binding of both proteins on microtubules. All proteins for TIRF microscopy assay were purified to >95% purity (FIGS. 11A & 11B). See also FIGS. 11C-11D.
# as §1, with “To examine whether the Kif7-Gli interaction described above is sufficient for recruiting Gli to microtubules, we reconstituted Gli and Kif7 on microtubules and examined their activity using an in vitro TIRF microscopy assay. Briefly,” for “Briefly,”
# [4] = target: T5, GMPCPP-stabilized microtubules (porcine, UniProt P02554 1-445); assay: TIRF microscopy, GFP intensity on microtubules, no Gli2-ZF
# T5 construct: Polymer of tubulin heterodimers; in TIRF partly labeled with X-rhodamine/HiLyte 647 and biotin; also called MT; GMPCPP-microtubule lattice
# GST-Kif7-CC-GFP = target: T4, GST-Kif7-CC-GFP; assay: SDS-PAGE and in-gel GFP fluorescence intensity of the size exclusion fraction holding the Kif7-CC-GFP:Gli2-ZF-GFP complex; confirmed by quantitative anti-GFP western blot
# Procedure: To determine the stoichiometry of the complex (whether one Kif7-CC dimer bind one or two molecules of monomeric Gli2-ZF), we used fluorescence intensity analyses. […] The complex was analyzed by two methods. […] Second, quantitative western blot with fluorescently labeled anti-GFP antibody and densitometric analysis independently confirmed the stoichiometry of the complex (FIG. 8F).
# The Kif7-CC and Kif7-DM proteins were not amenable to dynamic light scattering analysis and so in order to determine the stoichiometry of the Kif7-Gli2 complexes, we purified GFP-tagged constructs of Kif7-DM, Kif7-CC, and Gli2-ZF. […] After incubation, 200 μL of this mix was injected into a Superdex 200 10/300 GL column. Fractions that contained complexed protein were determined by elution volume shift in the gel filtration chromatogram. Complex containing fractions were boiled and run in SDS-PAGE and quantified in two ways: (1) Scan of an unstained SDS-PAGE gel at 488 nm, and (2) Scan of a Western blot using a directly labeled […] anti-GFP antibody (Santa Cruz). Both methods were quantified using an Amersham™ Typhoon Scanner and ImageJ for intensity analysis.
# T5 sequence (P02554 whole entry): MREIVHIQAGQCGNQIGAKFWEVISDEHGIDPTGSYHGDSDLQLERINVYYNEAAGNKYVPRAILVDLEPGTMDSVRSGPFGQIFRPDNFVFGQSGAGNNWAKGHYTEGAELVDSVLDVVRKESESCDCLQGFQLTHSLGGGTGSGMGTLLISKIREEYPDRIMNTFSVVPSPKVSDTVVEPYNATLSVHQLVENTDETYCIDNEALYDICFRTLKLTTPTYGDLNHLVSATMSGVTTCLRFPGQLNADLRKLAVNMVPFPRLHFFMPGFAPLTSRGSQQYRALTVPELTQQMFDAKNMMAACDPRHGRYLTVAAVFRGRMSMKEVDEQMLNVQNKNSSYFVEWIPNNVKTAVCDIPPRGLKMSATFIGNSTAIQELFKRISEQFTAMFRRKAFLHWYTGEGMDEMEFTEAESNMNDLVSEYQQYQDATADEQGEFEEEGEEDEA
binder,measurement,setting,value
B1,binding result,GST-Kif7-CC (460-600aa),no binding (tested: 125 nM)
B2,binding result,GST-Kif7-CC (460-600aa),no binding (tested: 125 nM)
B3,binding result,GST-Kif7-CC (460-600aa),no binding (tested: 125 nM)
B4,Kd,[1],0.069 µM
B5,fold Gli2-ZF Alexa-647 intensity on microtubules over Gli2 alone,Gli2-ZF-SNAP [2],~9 fold
same,fold increase over background of Gli2 intensity on microtubules,Gli2-ZF-SNAP [3],3 fold
B6,fold decrease in Gli recruitment on microtubules compared to Kif7-DM (Alexa-647 intensity per GFP intensity),Gli2-ZF-SNAP [2],3 fold
same,fold binding to microtubules compared to Kif7-DM (GFP intensity),[4],~10 fold
B7,fold decrease in Gli recruitment on microtubules compared to Kif7-DM (Alexa-647 intensity per GFP intensity),Gli2-ZF-SNAP [2],2 fold
same,fold binding to microtubules compared to Kif7-DM (GFP intensity),[4],~3 fold
B8,stoichiometry of interaction,GST-Kif7-CC-GFP,"0.5 Gli2-ZF molecules per Kif7-CC chain (1:2, one Gli2-ZF monomer per Kif7-CC dimer)"
